In PMC5910394 (Nature Communications, 2018):

Target: T1, HER2 on BT474 cells (Homo sapiens, BT474 cells, UniProt P04626)
T1 construct: HER2 (human epidermal growth factor receptor 2) on HER2-overexpressing BT474 breast cancer cells; source: endogenous, on BT474 cells
Assay: flow cytometry on cells; BT474 cells with 1, 10 or 100 nM of the AF647-carrying memAb complex
Details: one partner purified

B1: memAb pertuzumab IgG with pre-bound 5-diphenylalanine-meditope-Alexa-647 (complex)
VH: EVQLVESGGGLVQPGGSLRLSCAASGFTFTDYTMDWVRQSPGKGLEWVADVNPNSGGSIYNQRFKGRFTLSVDRSKNTLYLQMNSLRAEDTAIYYCARNLGDGFYAMDYWGQGTLVTVSS
VL: DIQLTQSPVILSASVGDRVTITCRAGESVDIFGVGFLHWYQQRTNGSPRLLIYRASNLESGVPSRFSGSGSRTDFTLTISSLQPEDEADYYCQQTNEDPYTFGAGTKVEIK
notes: as the heavy chain of Dm25; as the light chain of Dm25; as the peptide Dm26; non-covalent complex; source: IgG: ExpiCHO, purified; peptide: synthetic; copies: + +
binding result: binds
